Measurements taken from patent US9266964.

What was measured:
human plasma kallikrein [1] = target: T1, human plasma kallikrein (human, UniProt P03952 20-390; P03952 391-638); experiment: apparent inhibition constant (Ki,app) against human pKal, enzyme inhibition
T1 construct: also called pKal; human pKal
T1 sequence (P03952 20-390, chain 1 of 2): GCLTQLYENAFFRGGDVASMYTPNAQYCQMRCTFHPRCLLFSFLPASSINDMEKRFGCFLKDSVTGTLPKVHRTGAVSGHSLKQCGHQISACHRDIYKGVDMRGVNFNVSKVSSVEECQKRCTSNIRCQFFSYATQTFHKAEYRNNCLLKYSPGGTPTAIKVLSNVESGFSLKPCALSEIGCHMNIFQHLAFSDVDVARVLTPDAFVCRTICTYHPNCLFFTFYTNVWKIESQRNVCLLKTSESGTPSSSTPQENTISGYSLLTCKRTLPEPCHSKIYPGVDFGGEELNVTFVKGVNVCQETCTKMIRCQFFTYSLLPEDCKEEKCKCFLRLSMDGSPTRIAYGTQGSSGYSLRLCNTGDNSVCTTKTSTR
T1 sequence (P03952 391-638, chain 2 of 2): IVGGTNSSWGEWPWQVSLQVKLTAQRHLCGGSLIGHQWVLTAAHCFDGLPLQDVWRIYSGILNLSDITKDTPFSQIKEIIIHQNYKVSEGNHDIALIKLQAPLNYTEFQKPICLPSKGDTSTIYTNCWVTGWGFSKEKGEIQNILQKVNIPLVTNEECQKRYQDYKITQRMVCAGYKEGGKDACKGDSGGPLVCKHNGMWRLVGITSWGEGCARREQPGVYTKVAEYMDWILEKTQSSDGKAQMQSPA

human plasma kallikrein [2] = target: T1, human plasma kallikrein; experiment: ELISA, biotinylated plasma kallikrein coated on microtiter plate, signal divided by streptavidin background
Excerpt: Abbreviations used: "T/B" is the ELISA signal obtained using of the "target" (biotinylated plasma kallikrein) divided by the ELISA signal of the "background" (streptavidin); both of which were coated on microtiter plates. "nd" is not determined. The symbol "q" refers to the amber suppressible stop codon (TAG), which is translated as glutamine (Q) in strains of *E. coli* such as the TG1 cells that were used to express the Fab fragments.

human plasma kallikrein [3] = target: human plasma kallikrein (human, UniProt P03952 20-390; P03952 391-638); experiment: cell-based or functional assay
Target sequence in this assay (P03952 20-390, chain 1 of 2): as the sequence (P03952 20-390, chain 1 of 2) above
Target sequence in this assay (P03952 391-638, chain 2 of 2): as the sequence (P03952 391-638, chain 2 of 2) above

Ki (human plasma kallikrein [1]) [nM] | Human pKal ELISA (T/B) (human plasma kallikrein [2]) | % inhibition at 10 nM (human plasma kallikrein [3]) [%] | Binder
2.1 |  |  | X67-B03 (antibody, V domains shown, Single point mutant (F to S at P2 of HC CDR3) of M142-H08; Only variable domains and the start of CH1 are printed; also called 559A-X67-B03) VH: EVQLLESGGGLVQPGGSLRLSCAASGFTFSAYSMIWVRQAPGKGLEWVSYIRPSGGRTTYADSVKGRFTISRDNSKNTLYLQMNSLRAEDTAVYYCARGGLLLWSRELKSNYFDYWGQGTLVTVSS VL: DIQMTQSPSSLSAFVGDRVTITCRASQPIDNYLNWYHQKPGKAPKLLIYAASRLQSGVPSRLSGSGFGTDFTLTISSLQPEDFGNYYCQQSYTVPYTFGGGTKVEIR
3.6 |  |  | X67-H04 (antibody, V domains shown, Single point mutant (F to E at P2 of HC CDR3) of M142-H08; Only variable domains and the start of CH1 are printed; also called 559A-X67-H04) VH: EVQLLESGGGLVQPGGSLRLSCAASGFTFSAYSMIWVRQAPGKGLEWVSYIRPSGGRTTYADSVKGRFTISRDNSKNTLYLQMNSLRAEDTAVYYCARGGLLLWERELKSNYFDYWGQGTLVTVSS VL: DIQMTQSPSSLSAFVGDRVTITCRASQPIDNYLNWYHQKPGKAPKLLIYAASRLQSGVPSRLSGSGFGTDFTLTISSLQPEDFGNYYCQQSYTVPYTFGGGTKVEIR
0.9 |  |  | X67-F01 (antibody, V domains shown, Single point mutant (F to Q at P2 of HC CDR3) of M142-H08; Only variable domains and the start of CH1 are printed; also called 559A-X67-F01) VH: EVQLLESGGGLVQPGGSLRLSCAASGFTFSAYSMIWVRQAPGKGLEWVSYIRPSGGRTTYADSVKGRFTISRDNSKNTLYLQMNSLRAEDTAVYYCARGGLLLWQRELKSNYFDYWGQGTLVTVSS VL: DIQMTQSPSSLSAFVGDRVTITCRASQPIDNYLNWYHQKPGKAPKLLIYAASRLQSGVPSRLSGSGFGTDFTLTISSLQPEDFGNYYCQQSYTVPYTFGGGTKVEIR
0.7 |  |  | X67-C03 (antibody, V domains shown, Single point mutant (F to M at P2 of HC CDR3) of M142-H08; the printed HC is used; Only variable domains and the start of CH1 are printed; also called 559A-X67-C03) VH: EVQLLESGGGLVQPGGSLRLSCAASGFTFSAYSMIWVRQAPGKGLEWVSYIRPSGGRTTYADSVKGRFTISRDNSKNTLYLQMNSLRAEDTAVYYCARGGLLLWMRELKSNYFDYWGQGTLVTVSS VL: DIQMTQSPSSLSAFVGDRVTITCRASQPIDNYLNWYHQKPGKAPKLLIYAASRLQSGVPSRLSGSGFGTDFTLTISSLQPEDFGNYYCQQSYTVPYTFGGGTKVEIR
0.35 |  |  | X67-G04 (antibody, V domains shown, Single point mutant (F to A at P2 of HC CDR3) of M142-H08; Only variable domains and the start of CH1 are printed; also called 559A-X67-G04) VH: EVQLLESGGGLVQPGGSLRLSCAASGFTFSAYSMIWVRQAPGKGLEWVSYIRPSGGRTTYADSVKGRFTISRDNSKNTLYLQMNSLRAEDTAVYYCARGGLLLWARELKSNYFDYWGQGTLVTVSS VL: DIQMTQSPSSLSAFVGDRVTITCRASQPIDNYLNWYHQKPGKAPKLLIYAASRLQSGVPSRLSGSGFGTDFTLTISSLQPEDFGNYYCQQSYTVPYTFGGGTKVEIR
8.6 |  |  | X67-C09 (antibody, V domains shown, Single point mutant (F to G at P2 of HC CDR3) of M142-H08; Only variable domains and the start of CH1 are printed; also called 559A-X67-C09) VH: EVQLLESGGGLVQPGGSLRLSCAASGFTFSAYSMIWVRQAPGKGLEWVSYIRPSGGRTTYADSVKGRFTISRDNSKNTLYLQMNSLRAEDTAVYYCARGGLLLWGRELKSNYFDYWGQGTLVTVSS VL: DIQMTQSPSSLSAFVGDRVTITCRASQPIDNYLNWYHQKPGKAPKLLIYAASRLQSGVPSRLSGSGFGTDFTLTISSLQPEDFGNYYCQQSYTVPYTFGGGTKVEIR
1.3 |  |  | X67-F10 (antibody, V domains shown, Single point mutant (F to T at P2 of HC CDR3) of M142-H08; Only variable domains and the start of CH1 are printed; also called 559A-X67-F10) VH: EVQLLESGGGLVQPGGSLRLSCAASGFTFSAYSMIWVRQAPGKGLEWVSYIRPSGGRTTYADSVKGRFTISRDNSKNTLYLQMNSLRAEDTAVYYCARGGLLLWTRELKSNYFDYWGQGTLVTVSS VL: DIQMTQSPSSLSAFVGDRVTITCRASQPIDNYLNWYHQKPGKAPKLLIYAASRLQSGVPSRLSGSGFGTDFTLTISSLQPEDFGNYYCQQSYTVPYTFGGGTKVEIR
1.3 |  |  | X67-E04 (antibody, V domains shown, Single point mutant (F to D at P2 of HC CDR3) of M142-H08; Only variable domains and the start of CH1 are printed; also called 559A-X67-E04) VH: EVQLLESGGGLVQPGGSLRLSCAASGFTFSAYSMIWVRQAPGKGLEWVSYIRPSGGRTTYADSVKGRFTISRDNSKNTLYLQMNSLRAEDTAVYYCARGGLLLWDRELKSNYFDYWGQGTLVTVSS VL: DIQMTQSPSSLSAFVGDRVTITCRASQPIDNYLNWYHQKPGKAPKLLIYAASRLQSGVPSRLSGSGFGTDFTLTISSLQPEDFGNYYCQQSYTVPYTFGGGTKVEIR
0.1 |  |  | X67-D03 (antibody, V domains shown, Single point mutant (F to N at P2 of HC CDR3) of M142-H08; Only variable domains and the start of CH1 are printed; also called 559A-X67-D03) VH: EVQLLESGGGLVQPGGSLRLSCAASGFTFSAYSMIWVRQAPGKGLEWVSYIRPSGGRTTYADSVKGRFTISRDNSKNTLYLQMNSLRAEDTAVYYCARGGLLLWNRELKSNYFDYWGQGTLVTVSS VL: DIQMTQSPSSLSAFVGDRVTITCRASQPIDNYLNWYHQKPGKAPKLLIYAASRLQSGVPSRLSGSGFGTDFTLTISSLQPEDFGNYYCQQSYTVPYTFGGGTKVEIR
105 | 5.4 ratio of ELISA signal on target to background (streptavidin) |  | M8-A09 (Fab, V domains shown, Printed HC runs from VH into the start of CH1) VH: EVQLLESGGGLVQPGGSLRLSCAASGFTFSTYFMLWVRQAPGKGLEWVSSIYPSGGNTVYADSVKGRFTISRDNSKNTLYLQMNSLRAEDTAVYYCARAASPVRNYYYYGMDVWGQGTTVTVSS VL: QCELTQPPSESVSPGQTANITCSGDKLGNKYAYWYQQKPGQSPVLVIYQDNNRPSGIPERFSGSNSGNTATLTISGTQAIDEANYYCQAWDSRTVVFGGGTKLTVL
5.9 | 39.9 ratio of ELISA signal on target to background (streptavidin) |  | M6-D09 (Fab, V domains shown, Printed HC runs from VH into the start of CH1; also called M06-D09; 559A-M06-D09) VH: EVQLLESGGGLVQPGGSLRLSCAASGFTFSFYYMVWVRQAPGKGLEWVSVIYPSGGITVYADSVKGRFTISRDNSKNTLYLQMNSLRAEDTAVYYCARDKWAVMPPYYYYAMDVWGQGTTVTVSS VL: DIQMTQSPSSLSASVGDRVTITCRASQSIRNYLNWYQQKPGKAPNLLIYAASTLQSGVPARFSGSGSGTDFTLTISSLQPEDFATYYCQQLSGYPHTFGQGTKLEIK
< 100 | 39.2 ratio of ELISA signal on target to background (streptavidin) |  | M10-F10 (Fab, V domains shown, Printed HC runs from VH into the start of CH1) VH: EVQLLESGGGLVQPGGSLRLSCAASGFTFSFYNMNWVRQAPGKGLEWVSSISPSGGETNYADSVKGRFTISRDNSKNTLYLQMNSLRAEDTAVYYCARGGGAYRNNWWGGFDIWGLGTMVTVSS VL: DIQMTQSPSSLSASVGDRVTITCRASQSISVYLNWYQHKPGKAPKLLIYGASNLQFGVPSRFSGSGYGTDFTLTISSLQPEDFATYHCQQTFSLFTFGGGTKVEIK
 |  | 47 | M209-B01 (Fab, V domains shown) VH: EVQLLESGGGLVQPGGSLRLSCAASGFTFSHYLMTWVRQAPGKGLEWVSYISPSGGHTIYADSVKGRFTISRDNSKNTLYLQMNSLRAEDTAVYYCARVARGIVARSRTSNFDQWGQGTLVTVSS VL: DIQMTQSPGTLSLSPGERATLSCRTSQFVNSNYLAWYQQTPGQAPRLLIYGASSRATGIPDRFSGTGYGTDFTLTISRLEPEDYGTYYCQQSSRTPWTFGQGTRVEIK
 |  | 19 | M206-H04 (Fab, V domains shown) VH: EVQLLESGGGLVQPGGSLRLSCAASGFTFSSYMMVWVRQAPGKGLEWVSSISPSGGYTIQADSVKGRFTISRDNSKNTLYLQMNSLRAEDTAVYYCARVARGIAARSRTSYFDYWGQGTLVTVSS VL: DIQMTQSPGTLSLSPGERATLSCRTSQFVNSNYLAWYQQTPGQAPRLLIYGASSRATGIPDRFSGTGYGTDFTLTISRLEPEDYGTYYCQQSSRTPWTFGQGTRVEIK
 |  | 43.7 | M208-D12 (Fab, V domains shown) VH: EVQLLESGGGLVQPGGSLRLSCAASGFTFSHYLMTWVRQAPGKGLEWVSYISPSGGHTIYADSVKGRFTISRDNSKNTLYLQMNSLRAEDTAVYYCARLARGIAARSRTSYQDIWGQGTLVTVSS VL: DIQMTQSPGTLSLSPGERATLSCRTSQFVNSNYLAWYQQTPGQAPRLLIYGASSRATGIPDRFSGTGYGTDFTLTISRLEPEDYGTYYCQQSSRTPWTFGQGTRVEIK
0.2 |  |  | X81-B01 (antibody, V domains shown, No variable domains are printed under the name X81-B01; also called germlined, codon optimized IgG version of X63-G06) VH: EVQLLESGGGLVQPGGSLRLSCAASGFTFSHYLMTWVRQAPGKGLEWVSYISPSGGHTIYADSVKGRFTISRDNSKNTLYLQMNSLRAEDTAVYYCARVARGIAARSRTSYFDYWGQGTLVTVSS VL: EIVLTQSPGTLSLSPGERATLSCRTSQFVNSNYLAWYQQKPGQAPRLLIYGASSRATGIPDRFSGSGSGTDFTLTISRLEPEDFAVYYCQQSSRTPWTFGQGTKVEIK
54 | 4.1 ratio of ELISA signal on target to background (streptavidin) |  | M7-B04 (Fab, V domains shown, Printed HC runs from VH into the start of CH1) VH: EVQLLESGGGLVQPGGSLRLSCAASGFTFSWYSMVWVRQAPGKGLEWVSSISPSGGLTNYADSVKGRFTISRDNSKNTLYLQMNSLRAEDTAVYYCARHTAARPFYYYYMDVWGKGTTVTVSS VL: QSALTQPASVSGSPGQSITISCTGTNSDVGNYNLVSWYQQHPGEAPKLLIYEVNKRPSGVSNRFSGSKSGNTASLTISGLQAEDEADYLCCSYAGNRNFYVFGAGTKVTVL
11 | 28.8 ratio of ELISA signal on target to background (streptavidin) |  | M29-E09 (Fab, V domains shown, Printed HC runs from VH into the start of CH1) VH: EVQLLESGGGLVQPGGSLRLSCAASGFTFSWYEMGWVRQAPGKGLEWVSSIYSSGGGTMYADSVKGRFTISRDNSKNTLYLQMNSLRAEDTAVYYCARNPQYSGYDRSLSDGAFDIWGQGTMVTVSS VL: QYELTQPPSVSVSPGQTATITCSGDNLGNKYNSWYQQKPGQSPLLVIYQDTKRPSAIPERFSGSNSGNTATLTISGTQAMDEADYYCQAWDGNVVFGGGTKLTVL
0.7 | 47.5 ratio of ELISA signal on target to background (streptavidin) |  | M29-D09 (Fab, V domains shown, Printed HC runs from VH into the start of CH1; also called 559A-M29-D09; 559A-M0029-D09) VH: EVQLLESGGGLVQPGGSLRLSCAASGFTFSWYTMVWVRQAPGKGLEWVSYIYPSGGATFYADSVKGRFTISRDNSKNTLYLQMNSLRAEDTAVYYCAMGSYDYIWGFYSDHWGQGTLVTVSS VL: QSALTQPPTVSVSPGQTARITCSGNKLGDKYVAWYQQKPGQSPMLVIYQDTKRPSRVSERFSGSNSANTATLSISGTQALDEADYYCQAWDSSIVIFGGGTRLTVL
36 | 45.7 ratio of ELISA signal on target to background (streptavidin) |  | M7-E07 (Fab, V domains shown, Printed HC runs from VH into the start of CH1) VH: EVQLLESGGGLVQPGGSLRLSCAASGFTFSWYLMIWVRQAPGKGLEWVSYIYPSGGFTYYADSVKGRFTISRDNSKNTLYLQMNSLRAEDMAVYYCARTEGPLSWGYGMDVWGQGTTVTVSS VL: not shown
16 | 41.3 ratio of ELISA signal on target to background (streptavidin) |  | M27-E05 (Fab, V domains shown, Printed HC runs from VH into the start of CH1) VH: EVQLLESGGGLVQPGGSLRLSCAASGFTFSWYLMIWVRQAPGKGLEWVSYIYPSGGFTYYADSVKGRFTISRDNSKNTLYLQMNSLRAEDMAVYYCARTEGPLSWGYGMDVWGQGTTVTVSS VL: not shown
